Experimental data published in patent US20230001007A1, “Glycan-Interacting Compounds and Methods of Use” (Seagen Inc., priority 2017, published 2023).

Legend:
[1] = test system: cynomolgus monkey tissues; assay: Tissue cross-reactivity study, frozen tissue sections; type: binding; design: key: 1+=weak staining; 2+=moderate staining; 3+=strong staining; 4+=intense staining; Neg=negative; freq=frequent (staining in >75%-100% of cells); occ=occasional (staining in >25%-50% of cells); rare refers to staining in 1-5% of cells; settings: Cyno, 1-3 μg/ml
Protocol: Tissue cross-reactivity studies were conducted to assess the binding profile (both on- and potential off-target binding) to human and relevant species used in nonclinical safety testing. Humanized anti-STn antibodies were examined for binding to a panel of normal human, rat, mouse, and cynomolgus monkey tissues. The study was conducted on […] normal frozen tissue sections at 1-3 μg/ml: heart, brain, kidney, stomach, lung, small intestines, colon, liver, pancreas, spleen and bone marrow. The positive control was a human pancreatic neoplasm that contained STn positive cancer cells and the negative control was normal stromal cells contained within the same specimen. Staining across all normal tissues was restricted to the cytoplasm. Additional analyses were conducted without primary antibody or using isotype control IgG as negative controls.
Antibodies were also found to cross react with similar types of tissue from Cynomolgus monkey (see Table 17) and rat (not shown).

[2] = test system: MDA-MB-231-STn cells; assay: Flow cytometry-based binding analysis; settings: 0 to 300 nM, read-out: MDA-MB-231-STn cell binding [EC50 (nM)]
Protocol: Humanized IgG1 antibodies, prepared as described above, were subjected to characterization analysis including flow cytometry-based binding analysis with MDA-MB-231-STn cells; binding analysis by BSM ELISA; and glycan array analysis.
In flow cytometry-based binding studies, antibodies were screened over a concentration range of 0 to 300 nM, comparing binding to MDA-MB-231 cells with or without transfection-induced STn expression. Binding was determined using an anti-human APC conjugated secondary antibody and only live cells were considered (based on propidium iodide negative gating). 5,000 events were collected per sample on average. Data were analyzed using FlowJo software (Asland, Oreg.) and resulting APC means and % APC were obtained. […] Human isotype IgG1 antibody was used as an isotype negative control. Epidermal growth factor receptor (LA22, EMD Millipore, Billerica, Mass.) was used as a positive control.

[3] = test system: array glycans (AcSTn, GcSTn, Tn and others); assay: Glycan array analysis; type: binding; design: key: Group 1: capable of binding AcSTn and GcSTn, if they bind to glycans 5, 6, 23 and 24; Group 2: capable of binding STn as well as some related structures that include an O-linkage to serine or threonine, if they bind to glycans 5, 6, 23, 24, 27 and 31; Group 3: capable of binding STn, but may also bind a broader set of related structures) if they bind glycans 5, 6, 23, 24, 17, 3, 19, 37, 27 and 31; Group 4: capable of binding to both AcSTn and GcSTn as well as the un-sialylated Tn antigen (therefore having broader specificity) if they bind to glycans 5, 6, 23, 24 and 47
Protocol: Optimized glycan arrays are utilized to test antibody affinity and specificity for multiple glycans in a single experiment. Glycan arrays include 71 chemically synthesized and well-defined glycans, most of which are Neu5Ac and Neu5Gc glycan pairs.
300 ml of epoxy blocking buffer is prepared by combining 15 ml of 2 M Tris buffer (pH 8) with 0.9 ml of 16.6 M ethanolamine and 284.1 ml of distilled water. The solution is brought to a final pH of 9.0 with HCl. The solution is filtered using a […] nitrocellulose membrane. The epoxy buffer solution as well as 1 L of distilled water are pre-warmed to 50° C. Glass slides are arranged in a slide holder and quickly submerged in a staining tub with the warmed epoxy blocking buffer. Slides are incubated in the epoxy blocking buffer for 1 hour at 50° C. with periodic shaking to deactivate epoxy binding sites. Next, slides are rinsed and blocked with PBS with 1% OVA at 25° C. for one hour. Serum samples with polyclonal antibodies (1:1000) or purified monoclonal antibodies (1 ug/mL), are diluted in PBS with 1% OVA and added to the glycan array for one hour at 25° C. After extensive washing, binding of antibodies are detected by incubating glycan microarray slides with Cy3-conjugated anti-mouse IgG (Jackson Immunoresearch, West Grove, Pa.) for one hour. Slides are then washed extensively, dried and scanned with a Genepix 4000B scanner (Laser at 100%; gain at 350; 10 μm pixels). Raw data from scanned images are extracted using the Genepix software and analysis of raw data is carried out.
Based on array analysis, antibodies are classified according to array glycan binding profile. Antibodies are classified as “Group 1” antibodies, capable of binding AcSTn and GcSTn, if they bind to glycans 5, 6, 23 and 24. Such antibodies are referred to as Pan-STn antibodies due to their ability to associate with a wider range of STn structures and the portion of STn indicated by the largest ellipse in FIG. 1A. […]

B1: hSIA101 (antibody, V domains shown)
VH: EVQLVQSGAEVKKPGASVKVSCKASGYTFTDHAIHWVRQAPGQGLEWMGYFSPGNDDIKYNEKFRGRVTMTADKSSSTAYMELRSLRSDDTAVYFCKRSLSTPYWGQGTLVTVSS
VL: DIVMTQSPDSLAVSLGERATINCKSSQSLLNRGNHKNYLTWYQQKPGQPPKLLIYWASTRESGVPDRFSGSGSGTDFTLTISSLQAEDVAVYYCQNDYTYPYTFGQGTKVEIK
tissue staining ([1]; Colon Epithelial Cells): Neg | tissue staining ([1]; Colon Vessel): 4+ freq (cytoplasm) | tissue staining ([1]; Heart Vessel): Neg | tissue staining ([1]; Lung Epithelium): 2-3+ freq (cytoplasm) | tissue staining ([1]; Pancreas Vessel): 2-3+ freq (cytoplasm) | tissue staining ([1]; Small Intestine Epithelial Cells): 3-4+ freq (cytoplasm) | tissue staining ([1]; Spleen Vessel): Neg | tissue staining ([1]; Stomach Epithelial Cells): 2-3+ occ (cytoplasm) | tissue staining ([1]; Stomach Vessel): 2+ occ (cytoplasm) | EC50 [2]: 2 nM | Array glycan binding profile [3]: Group 1
